6 substances from the supplement of paper PMC5998384 can be followed below.

In data set [1] the test system is HeLa Kyoto. The experiment in a line: solubility in G1/S (NP-40 vs SDS abundance) (log2 ratio); higher = more soluble. The following applies: cell cycle stage: G1/S.
In data set [2] the test system is HeLa Kyoto. The data set is described as follows: thermal stability score vs G1/S (z-score of summed log2 fold changes over temperatures); higher = more thermally stable than in G1/S.
The subject of data set [3] is HeLa Kyoto. The experiment in a line: melting temperature (median over replicates), in situ; higher = more thermally stable.
Data set [4] deals with HeLa Kyoto. The data set is described as follows: solubility change mitosis vs G1/S (difference of NP-40 vs SDS log2 ratios) (log2 ratio difference); higher = more soluble in mitosis.
The mark [5] stands for this setting: cell cycle stage: early G1 (4.5 h after nocodazole release).
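Wherever melting temperature (median over replicates), in situ is given: HeLa Kyoto cells synchronized by double thymidine or nocodazole block, proteins quantified by TMT10plex mass spectrometry, three independent biological replicates.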
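Wherever solubility change mitosis vs G1/S (difference of NP-40 vs SDS log2 ratios) is given: synchronized HeLa Kyoto cells (double thymidine block for G1/S, nocodazole release for mitosis), protein amounts in NP-40 versus SDS lysates quantified by mass spectrometry, three biological replicates.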
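Wherever solubility in G1/S (NP-40 vs SDS abundance) is given: HeLa Kyoto cells arrested at G1/S by double thymidine block, proteins quantified by TMT10plex mass spectrometry in mild NP-40 versus SDS extracts, three biological replicates.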
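Wherever thermal stability score vs G1/S (z-score of summed log2 fold changes over temperatures) is given: synchronized HeLa Kyoto cells, proteins quantified by TMT10plex mass spectrometry, three biological replicates, mitosis taken 0.5 h after nocodazole release, G1/S directly after double thymidine block.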

Turning to “MGKKQKNKSEDSTKDDIDLDALAAEIEGAGAAKEQEPQKSKGKKKKEKKKQDFDEDDILKELEELSLEAQGIKADRETVAVKPTENNEEEFTSKDKKKKGQKGKKQSFDDNDSEELEDKDSKSKKTAKPKVEMYSGSDDDDDFNKLPKKAKGKAQKSNKKWDGSEEDEDNSKKIKERSRINSSGESGDESDEFLQSRKGQKKNQKNKPGPNIESGNEDDDASFKIKTVAQKKAEKKERERKKRDEEKAKLRKLKEKEELETGKKDQSKQKESQRKFEEETVKSKVTVDTGVIPASEEKAETPTAAEDDNEGDKKKKDKKKKKGEKEEKEKEKKKGPSKATVKAMQEALAKLKEEEERQKREEEERIKRLEELEAKRKEEERLEQEKRERKKQKEKERKERLKKEGKLLTKSQREARARAEATLKLLQAQGVEVPSKDSLPKKRPIYEDKKRKKIPQQLESKEVSESMELCAAVEVMEQGVPEKEETPPPVEPEEEEDTEDAGLDDWEAMASDEETEKVEGNKVHIEVKENPEEEEEEEEEEEEDEESEEEEEEEGESEGSEGDEEDEKVSDEKDSGKTLDKKPSKEMSSDSEYDSDDDRTKEERAYDKAKRRIEKRRLEHSKNVNTEKLRAPIICVLGHVDTGKTKILDKLRHTHVQDGEAGGITQQIGATNVPLEAINEQTKMIKNFDRENVRIPGMLIIDTPGHESFSNLRNRGSSLCDIAILVVDIMHGLEPQTIESINLLKSKKCPFIVALNKIDRLYDWKKSPDSDVAATLKKQKKNTKDEFEERAKAIIVEFAQQGLNAALFYENKDPRTFVSLVPTSAHTGDGMGSLIYLLVELTQTMLSKRLAHCEELRAQVMEVKALPGMGTTIDVILINGRLKEGDTIIVPGVEGPIVTQIRGLLLPPPMKELRVKNQYEKHKEVEAAQGVKILGKDLEKTLAGLPLLVAYKEDEIPVLKDELIHELKQTLNAIKLEEKGVYVQASTLGSLEALLEFLKTSEVPYAGINIGPVHKKDVMKASVMLEHDPQYAVILAFDVRIERDAQEMADSLGVRIFSAEIIYHLFDAFTKYRQDYKKQKQEEFKHIAVFPCKIKILPQYIFNSRDPIVMGVTVEAGQVKQGTPMCVPSKNFVDIGIVTSIEINHKQVDVAKKGQEVCVKIEPIPGESPKMFGRHFEATDILVSKISRQSIDALKDWFRDEMQKSDWQLIVELKKVFEII [EIF5B]”, the “solubility in G1/S (log2)” value in data set [1] is -0.19. The thermal stability score in data set [2] (setting [5]) turned out to be 1.35; in data set [2] (cell cycle stage: mitosis) it was 2.42. For the same substance, the melting temperature stood at 51.5 °C in data set [3] (cell cycle stage: G1/S) and 51.6 °C in data set [3] (cell cycle stage: mitosis). The “solubility change mitosis (log2)” value in data set [4] is 0.0872.

For “MSFIPVAEDSDFPIHNLPYGVFSTRGDPRPRIGVAIGDQILDLSIIKHLFTGPVLSKHQDVFNQPTLNSFMGLGQAAWKEARVFLQNLLSVSQARLRDDTELRKCAFISQASATMHLPATIGDYTDFYSSRQHATNVGIMFRDKENALMPNWLHLPVGYHGRASSVVVSGTPIRRPMGQMKPDDSKPPVYGACKLLDMELEMAFFVGPGNRLGEPIPISKAHEHIFGMVLMNDWSARDIQKWEYVPLGPFLGKSFGTTVSPWVVPMDALMPFAVPNPKQDPRPLPYLCHDEPYTFDINLSVNLKGEGMSQAATICKSNFKYMYWTMLQQLTHHSVNGCNLRPGDLLASGTISGPEPENFGSMLELSWKGTKPIDLGNGQTRKFLLDGDEVIITGYCQGDGYRIGFGQCAGKVLPALLPS [FAH]”, the “solubility in G1/S (log2)” value in data set [1] was 0.207. The results for the thermal stability score in data set [2] (setting [5]) and in data set [2] (cell cycle stage: mitosis) were -0.791 and -0.764, respectively. Moreover, the melting temperature in data set [3] (cell cycle stage: G1/S) came to 58.7 °C; in data set [3] (cell cycle stage: mitosis) it was 59 °C. Also, the “solubility change mitosis (log2)” value in data set [4] is -0.0884.

In the case of LAMB2, in data set [1], the “solubility in G1/S (log2)” value came to 0.034. For the same substance, the thermal stability score in data set [2] (setting [5]) amounted to 2.43; in data set [2] (cell cycle stage: mitosis), 3.75. For the same substance, the melting temperature in data set [3] (cell cycle stage: G1/S) was found to be 53 °C; in data set [3] (cell cycle stage: mitosis) it was 53.9 °C. In addition, the “solubility change mitosis (log2)” value in data set [4] is -0.116.

With “MAASWRLGCDPRLLRYLVGFPGRRSVGLVKGALGWSVSRGANWRWFHSTQWLRGDPIKILMPSLSPTMEEGNIVKWLKKEGEAVSAGDALCEIETDKAVVTLDASDDGILAKIVVEEGSKNIRLGSLIGLIVEEGEDWKHVEIPKDVGPPPPVSKPSEPRPSPEPQISIPVKKEHIPGTLRFRLSPAARNILEKHSLDASQGTATGPRGIFTKEDALKLVQLKQTGKITESRPTPAPTATPTAPSPLQATAGPSYPRPVIPPVSTPGQPNAVGTFTEIPASNIRRVIAKRLTESKSTVPHAYATADCDLGAVLKVRQDLVKDDIKVSVNDFIIKAAAVTLKQMPDVNVSWDGEGPKQLPFIDISVAVATDKGLLTPIIKDAAAKGIQEIADSVKALSKKARDGKLLPEEYQGGSFSISNLGMFGIDEFTAVINPPQACILAVGRFRPVLKLTEDEEGNAKLQQRQLITVTMSSDSRVVDDELATRFLKSFKANLENPIRLA [PDHX]”, in data set [1], the “solubility in G1/S (log2)” value amounted to 0.248. The thermal stability score in data set [2] (setting [5]) is -1.5; in data set [2] (cell cycle stage: mitosis), -1.54. The melting temperature in data set [3] (cell cycle stage: G1/S) turned out to be 53.5 °C; in data set [3] (cell cycle stage: mitosis) it was 52.9 °C. Moreover, the “solubility change mitosis (log2)” value in data set [4] is -0.00638.

Consider “MALDFLAGCAGGVAGVLVGHPFDTVKVRLQVQSVEKPQYRGTLHCFKSIIKQESVLGLYKGLGSPLMGLTFINALVFGVQGNTLRALGHDSPLNQFLAGAAAGAIQCVICCPMELAKTRLQLQDAGPARTYKGSLDCLAQIYGHEGLRGVNRGMVSTLLRETPSFGVYFLTYDALTRALGCEPGDRLLVPKLLLAGGTSGIVSWLSTYPVDVVKSRLQADGLRGAPRYRGILDCVHQSYRAEGWRVFTRGLASTLLRAFPVNAATFATVTVVLTYARGEEAGPEGEAVPAAPAGPALAQPSSL [SLC25A29]”, for which the “solubility in G1/S (log2)” value in data set [1] turned out to be 0.0296. In addition, the thermal stability score in data set [2] (setting [5]) was -0.402; in data set [2] (cell cycle stage: mitosis), -0.997. In addition, the melting temperature came out at 53.2 °C in data set [3] (cell cycle stage: G1/S) and 52.3 °C in data set [3] (cell cycle stage: mitosis). Besides, the “solubility change mitosis (log2)” value in data set [4] was -0.0388.

Regarding “MSEEQFGGDGAAAAATAAVGGSAGEQEGAMVAATQGAAAAAGSGAGTGGGTASGGTEGGSAESEGAKIDASKNEEDEGHSNSSPRHSEAATAQREEWKMFIGGLSWDTTKKDLKDYFSKFGEVVDCTLKLDPITGRSRGFGFVLFKESESVDKVMDQKEHKLNGKVIDPKRAKAMKTKEPVKKIFVGGLSPDTPEEKIREYFGGFGEVESIELPMDNKTNKRRGFCFITFKEEEPVKKIMEKKYHNVGLSKCEIKVAMSKEQYQQQQQWGSRGGFAGRARGRGGGPSQNWNQGYSNYWNQGYGNYGYNSQGYGGYGGYDYTGYNNYYGYGDYSNQQSGYGKVSRRGGHQNSYKPY [HNRNPD]”, the “solubility in G1/S (log2)” value in data set [1] amounted to 0.068. The thermal stability score in data set [2] (setting [5]) was -3.11; in data set [2] (cell cycle stage: mitosis), -2.98. Besides, the values for the melting temperature in data set [3] (cell cycle stage: G1/S) and in data set [3] (cell cycle stage: mitosis) were 55.6 °C and 54.9 °C, respectively. Moreover, the “solubility change mitosis (log2)” value in data set [4] amounted to 0.191.
